Results on one substance are retold here after article PMC3169740.

This assay addresses fluorescein-labeled SC pseudorepeat-repeat-1 peptide PR-R1[5F] (S. aureus). The assay is described as follows: other fluorescence titration.

“fibrinogen fragment D (domain or fragment)” yielded a Kd of 0.036 µM and a stoichiometry N (mol of fragment D/mol of peptide) of 0.77.

Usually Kd stands for the free concentration of one partner at which half of the binding sites on the other are occupied at equilibrium, for simple one-to-one binding. A high value points to weaker binding.
